Results: publication doi:10.1101/2020.11.22.393603 (bioRxiv, 2020)

Tests used:
[1] = target: T1, full-length recombinant GLK2 (Arabidopsis thaliana, UniProt Q9FFH0 1-386); test: SEC
T1 sequence (looked up): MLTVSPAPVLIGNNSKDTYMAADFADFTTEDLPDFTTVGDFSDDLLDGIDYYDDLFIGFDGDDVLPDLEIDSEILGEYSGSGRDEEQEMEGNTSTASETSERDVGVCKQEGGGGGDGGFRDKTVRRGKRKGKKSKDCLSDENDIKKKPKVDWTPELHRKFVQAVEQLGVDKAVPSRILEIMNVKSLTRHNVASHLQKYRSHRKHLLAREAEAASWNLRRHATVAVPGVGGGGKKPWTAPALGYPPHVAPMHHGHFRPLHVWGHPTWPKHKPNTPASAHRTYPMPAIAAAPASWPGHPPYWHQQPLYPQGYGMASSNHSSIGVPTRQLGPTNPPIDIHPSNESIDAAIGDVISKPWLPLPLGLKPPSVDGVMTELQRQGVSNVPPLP

[2] = target: T2, full-length recombinant GLK1 (Arabidopsis thaliana, UniProt Q9SIV3 1-420); test: SEC
T2 sequence (looked up): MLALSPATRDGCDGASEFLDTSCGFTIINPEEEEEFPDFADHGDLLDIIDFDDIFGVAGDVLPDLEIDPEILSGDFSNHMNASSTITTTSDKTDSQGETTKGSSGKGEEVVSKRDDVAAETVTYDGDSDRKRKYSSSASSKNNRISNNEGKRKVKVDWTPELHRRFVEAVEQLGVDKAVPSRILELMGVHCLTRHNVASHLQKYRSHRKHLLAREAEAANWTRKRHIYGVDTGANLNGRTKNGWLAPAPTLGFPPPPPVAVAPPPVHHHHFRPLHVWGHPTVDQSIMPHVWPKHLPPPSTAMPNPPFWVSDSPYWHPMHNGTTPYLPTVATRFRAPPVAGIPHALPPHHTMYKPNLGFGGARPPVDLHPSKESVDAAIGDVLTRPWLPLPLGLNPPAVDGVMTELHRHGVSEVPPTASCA

B1: full-length recombinant LSD1 (natural protein, Arabidopsis thaliana, UniProt P94077 1-189, looked up)
chain: MKVADMQDQLVCHGCRNLLMYPRGASNVRCALCNTINMVPPPPPPHDMAHIICGGCRTMLMYTRGASSVRCSCCQTTNLVPAHSNQVAHAPSSQVAQINCGHCRTTLMYPYGASSVKCAVCQFVTNVNMSNGRVPLPTNRPNGTACPPSTSTSTPPSQTQTVVVENPMSVDESGKLVSNVVVGVTTDKK
Question: Does B1 bind [1]?
Answer: binds

Question: Does B1 bind [2]?
Answer: binds
